Source: publication PMC5407770, “Pyridoxal phosphate synthases PdxS/PdxT are required for Actinobacillus pleuropneumoniae viability, stress tolerance and virulence” (PLoS ONE, 2017)

Columns and labels:
PdxS = biological target: T1, PdxS (Actinobacillus pleuropneumoniae, UniProt B3GXB6); test: PLP formation assay, OD414; type: biochemical; conditions: 50 mM Tris-HCl pH 8.0, 37°C, PdxS alone, 10 mM ammonium sulfate in place of glutamine
T1 construct: full-length ORF (888 bp), pET22b(+) NdeI/XhoI, His6-tag kept, E. coli BL21(DE3); PdxS alone, without PdxT
T1 sequence (B3GXB6 whole entry): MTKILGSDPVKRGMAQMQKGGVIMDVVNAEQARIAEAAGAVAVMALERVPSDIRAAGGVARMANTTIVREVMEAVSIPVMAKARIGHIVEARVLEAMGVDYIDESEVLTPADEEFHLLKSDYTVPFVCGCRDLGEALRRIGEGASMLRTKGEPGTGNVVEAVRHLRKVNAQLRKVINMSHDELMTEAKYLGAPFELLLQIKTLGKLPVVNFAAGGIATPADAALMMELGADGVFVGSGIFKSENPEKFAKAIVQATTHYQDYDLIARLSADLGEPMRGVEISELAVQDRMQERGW

O=CC(O)COP(=O)(O)O = test: purified protein; conditions: 50 mM Tris-HCl pH 8.0, 37°C, PdxS + PdxT mixture, co-substrates ribose 5-phosphate and glutamine, glyceraldehyde 3-phosphate 0–1.0 mM (DL form per methods)
NC(=O)CC[C@H](N)C(=O)O = test: purified protein; conditions: 50 mM Tris-Cl pH 8.0, 37°C, PdxS + PdxT mixture, glutamine 0–15 mM

## O=CC(O)COP(=O)(O)O (racemic) [glyceraldehyde 3-phosphate]
PdxS; 0.5 mM ribose 5-phosphate
  PLP formation assay, OD414: the individual PdxS could produce PLP in the addition of ammonium

## O=P(O)(O)OC[C@H]1OC(O)[C@H](O)[C@@H]1O (stereo partly drawn) [ribose 5-phosphate]
PdxS; 1 mM DL-glyceraldehyde 3-phosphate
  PLP formation assay, OD414: the individual PdxS could produce PLP in the addition of ammonium

## PLP synthase PdxS and PdxT (PLP synthesis activity) (Actinobacillus pleuropneumoniae serovar 7 str. AP76)
O=CC(O)COP(=O)(O)O
  Km: 175.7 ± 23.0 µM
  kcat: 0.000383 ± 1.83e-05 s⁻¹

## PdxS and PdxT (PLP synthase; glutaminase activity of PdxT with PdxS) (Actinobacillus pleuropneumoniae serovar 7 str. AP76)
NC(=O)CC[C@H](N)C(=O)O
  Km: 1720 ± 140 µM
  kcat: 0.102 ± 0.00233 s⁻¹
